# Results as given in US20040224363A1.
# Columns and labels:
# [1] = biological target: putative IBC-1 receptor on G361 melanoma cells, moderately high affinity binding site; assay: Scatchard analysis of AP-IBC-1 binding to G361 melanoma cells (bound AP activity)
# [2] = biological target: putative IBC-1 receptor on G361 melanoma cells, much lower affinity binding site; assay: as above
substance,measurement,setting,value
alkaline phosphatase-IBC-1 (AP-IBC-1) fusion protein (from UniProt P81605 20-110) (ligand),Kd,[1],37.5 nM
same,binding sites/cell (binding sites/cell),[1],17000
same,Kd,[2],360 nM
same,binding sites/cell (binding sites/cell),[2],350000
